The chains are these.
B1: 4-H3_H6_L0 (antibody, human IgG1, kappa)
heavy: not shown
light: DIQMTQSPSSLSASVGDRVTITCLASEDIASGISWYQQKPGKAPKLLIYGASNLESGVPSRFSGSGSGTDFTLTISSLQPEDFATYYCLGGYSFSSNGLTFGGGTKVEIKTVAAPSVFIFPPSDEQLKSGTASVVCLLNNFYPREAKVQWKVDNALQSGNSQESVTEQDSKDSTYSLSSTLTLSKADYEKHKVYACEVTHQGLSSPVTKSFNRGEC
notes: humanised, human IgG1 kappa
B2: 4-H3_H6_L1 (antibody, human IgG1, kappa)
heavy: not shown
light: DYQMTQSPSSLSASVGDRVTITCLASEDIASGISWYQQKPGKAPKLLIYGASNLESGVPSRFSGSGSGTDYTLTISSLQPEDFATYYCLGGYSFSSNGLTFGGGTKVEIKTVAAPSVFIFPPSDEQLKSGTASVVCLLNNFYPREAKVQWKVDNALQSGNSQESVTEQDSKDSTYSLSSTLTLSKADYEKHKVYACEVTHQGLSSPVTKSFNRGEC
notes: humanised, human IgG1 kappa
B3: 1-D5_VH-par_L0 (antibody, human IgG1, kappa, V domains shown)
VH: QQQLVESGGRLVTPGTPLTLTCAVSGFSLNNYIMGWVRQAPGKGLEYIGIISTGGSTYYASWAKGRFTISRTSTTMDLKMTSLTTEDTATYFCARGGSSAGAGFNIWGPGTLVTVSS
VL: DIQMTQSPSSLSASVGDRVTITCQASQSINSGLAWYQQKPGKAPKLLIYKASTLASGVPSRFSGSGSGTDFTLTISSLQPEDFATYYCQSYHYISANGATFGGGTKVEIKT
notes: also called 1-D5_L0 (hIgG1K)
B4: 1-D5_H2_VL-par (antibody, human IgG1, kappa, V domains shown)
VH: QQQLVESGGGVVQPGRSLRLSCAASGFSLNNYIMGWVRQAPGKGLEYIGIISTGGSTYYASWAKGRFTISRDSNTMYLQMNSLRAEDTATYFCARGGSSAGAGFNIWGQGTLVTVSS
VL: DIVMTQTPSSVSAAVGDTVTIQCQASQSINSGLAWYQQKPGQPPKRLIYKASTLASGVPSRFRGSGSGTDFTLTISDLECADAATYYCQSYHYISANGATFGGGTEVVVET
notes: also called 1-D5_H2 (hIgG1)
B5: 1-D5_H1_VL-par (antibody, human IgG1, kappa, V domains shown)
VH: QVQLVESGGGVVQPGRSLRLSCAASGFSLNNYIMGWVRQAPGKGLEWVAIISTGGSTYYASWAKGRFTISRDNSKNTLYLQMNSLRAEDTAVYYCARGGSSAGAGFNIWGQGTLVTVSS
VL: DIVMTQTPSSVSAAVGDTVTIQCQASQSINSGLAWYQQKPGQPPKRLIYKASTLASGVPSRFRGSGSGTDFTLTISDLECADAATYYCQSYHYISANGATFGGGTEVVVET
notes: also called 1-D5_H1 (hIgG1)
B6: 1-D5_H0_VL-par (antibody, human IgG1, kappa, V domains shown)
VH: QVQLVESGGGVVQPGRSLRLSCAASGFTFSNYIMGWVRQAPGKGLEWVAIISTGGSTYYASWAKGRFTISRDNSKNTLYLQMNSLRAEDTAVYYCARGGSSAGAGFNIWGQGTLVTVSS
VL: DIVMTQTPSSVSAAVGDTVTIQCQASQSINSGLAWYQQKPGQPPKRLIYKASTLASGVPSRFRGSGSGTDFTLTISDLECADAATYYCQSYHYISANGATFGGGTEVVVET
notes: also called 1-D5_H0 (hIgG1)
B7: 3-H9_VH-par_VL-par (antibody, human IgG1, kappa)
heavy chain: not shown
light chain: AIKMTQTPSSVSVAVGGTVTINCQSSQSVYSNNLLSWYQQKPGQPPKLLIYDASTLESGVPSRFKGSGSGTQFTLTISGVQCEDAATYYCQGSYYSSGWYNTFGGGTEVVVETVAAPSVFIFPPSDEQLKSGTASVVCLLNNFYPREAKVQWKVDNALQSGNSQESVTEQDSKDSTYSLSSTLTLSKADYEKHKVYACEVTHQGLSSPVTKSFNRGEC
notes: also called 3-H9_parental (hIgG1)
B8: 3-H9_H2_VL-par (antibody, human IgG1, kappa, V domains shown)
VH: QQLVESGGGVVQPGRSLRLSCAASGFSLSNYDMSWVRQAPGKGLEWIGSIHAIGITYYANWAEGRFTISRDKNTVYLQMNSLRAEDTATYFCARGLVDLNMWGQGTLVTVSS
VL: AIKMTQTPSSVSVAVGGTVTINCQSSQSVYSNNLLSWYQQKPGQPPKLLIYDASTLESGVPSRFKGSGSGTQFTLTISGVQCEDAATYYCQGSYYSSGWYNTFGGGTEVVVET
notes: also called 3-H9_H2 (hIgG1)
B9: 3-H9_H1_VL-par (antibody, human IgG1, kappa, V domains shown)
VH: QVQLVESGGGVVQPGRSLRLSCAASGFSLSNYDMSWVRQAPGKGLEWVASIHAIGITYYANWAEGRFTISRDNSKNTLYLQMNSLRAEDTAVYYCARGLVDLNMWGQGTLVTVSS
VL: AIKMTQTPSSVSVAVGGTVTINCQSSQSVYSNNLLSWYQQKPGQPPKLLIYDASTLESGVPSRFKGSGSGTQFTLTISGVQCEDAATYYCQGSYYSSGWYNTFGGGTEVVVET
notes: also called 3-H9_H1 (hIgG1)
B10: 1-G5_H2_VL-par (antibody, human IgG1, kappa, V domains shown)
VH: QQLVESGGGVVQPGRSLRLSCAASGFSLSSYDMTWVRQAPGKGLEWIGSIHATGITFYANWAKGRFTTSKDSNTVYLQMNSLRAEDTATYFCARGLVDLNMWGQGTLVTVSS
VL: DPVMTQTASSVSAAVGGTVTINCQASQSVYNNNYLSWYQQKPGQPPKLLIYDASTLASGVPSRFSGNGSGTQFTLTISGVQCDDAATYYCQGSYYSGGWDTAFGGGTKVVVKT
notes: also called 1-G5_H2 (hIgG1)
B11: 3-H9_H0_VL-par (antibody, human IgG1, kappa, V domains shown)
VH: QVQLVESGGGVVQPGRSLRLSCAASGFTFSNYDMSWVRQAPGKGLEWVASIHAIGITYYANWAEGRFTISRDNSKNTLYLQMNSLRAEDTAVYYCARGLVDLNMWGQGTLVTVSS
VL: AIKMTQTPSSVSVAVGGTVTINCQSSQSVYSNNLLSWYQQKPGQPPKLLIYDASTLESGVPSRFKGSGSGTQFTLTISGVQCEDAATYYCQGSYYSSGWYNTFGGGTEVVVET
notes: also called 3-H9_H0 (hIgG1)
B12: 1-G5_VH-par_L1 (antibody, human IgG1, kappa)
heavy chain: not shown
light chain: DPQMTQSPSSLSASVGDRVTITCQASQSVYNNNYLSWYQQKPGKAPKLLIYDASTLASGVPSRFSGSGSGTDFTLTISSLQPEDFATYYCQGSYYSGGWDTAFGGGTKVEIKTVAAPSVFIFPPSDEQLKSGTASVVCLLNNFYPREAKVQWKVDNALQSGNSQESVTEQDSKDSTYSLSSTLTLSKADYEKHKVYACEVTHQGLSSPVTKSFNRGEC
notes: also called 1-G5_L1 (hIgG1K)
B13: 1-G5_VH-par_L0 (antibody, human IgG1, kappa)
heavy chain: not shown
light chain: DIQMTQSPSSLSASVGDRVTITCQASQSVYNNNYLSWYQQKPGKAPKLLIYDASTLASGVPSRFSGSGSGTDFTLTISSLQPEDFATYYCQGSYYSGGWDTAFGGGTKVEIKTVAAPSVFIFPPSDEQLKSGTASVVCLLNNFYPREAKVQWKVDNALQSGNSQESVTEQDSKDSTYSLSSTLTLSKADYEKHKVYACEVTHQGLSSPVTKSFNRGEC
notes: also called 1-G5_L0 (hIgG1K)
B14: 3-H9_VH-par_L0 (antibody, human IgG1, kappa, V domains shown)
VH: SQSLEESGGRLVTPGTPLTLTCSVSGFSLSNYDMSWVRQAPGKGLEWIGSIHAIGITYYANWAEGRFTISKTSTTVDLKMTSLTTEDTATYFCARGLVDLNMWGPGTLVTVSS
VL: DIQMTQSPSSLSASVGDRVTITCQSSQSVYSNNLLSWYQQKPGKAPKLLIYDASTLESGVPSRFSGSGSGTDFTLTISSLQPEDFATYYCQGSYYSSGWYNTFGGGTKVEIKT
notes: also called 3-H9_L0 (hIgG1K)
B15: 1-G5_H1_VL-par (antibody, human IgG1, kappa, V domains shown)
VH: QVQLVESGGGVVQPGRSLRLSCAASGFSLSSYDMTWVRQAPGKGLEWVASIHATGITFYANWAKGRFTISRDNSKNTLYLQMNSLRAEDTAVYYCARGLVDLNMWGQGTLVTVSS
VL: DPVMTQTASSVSAAVGGTVTINCQASQSVYNNNYLSWYQQKPGQPPKLLIYDASTLASGVPSRFSGNGSGTQFTLTISGVQCDDAATYYCQGSYYSGGWDTAFGGGTKVVVKT
notes: also called 1-G5_H1 (hIgG1)
B16: 1-G5_H0_VL-par rep (antibody, human IgG1, kappa, V domains shown)
VH: QVQLVESGGGVVQPGRSLRLSCAASGFTFSSYDMTWVRQAPGKGLEWVASIHATGITFYANWAKGRFTISRDNSKNTLYLQMNSLRAEDTAVYYCARGLVDLNMWGQGTLVTVSS
VL: DPVMTQTASSVSAAVGGTVTINCQASQSVYNNNYLSWYQQKPGQPPKLLIYDASTLASGVPSRFSGNGSGTQFTLTISGVQCDDAATYYCQGSYYSGGWDTAFGGGTKVVVKT
notes: also called 1-G5_H0 (hIgG1)
B17: 1-G5_VH-par_VL-par (antibody, human IgG1, kappa)
heavy chain: not shown
light chain: DPVMTQTASSVSAAVGGTVTINCQASQSVYNNNYLSWYQQKPGQPPKLLIYDASTLASGVPSRFSGNGSGTQFTLTISGVQCDDAATYYCQGSYYSGGWDTAFGGGTKVVVKTVAAPSVFIFPPSDEQLKSGTASVVCLLNNFYPREAKVQWKVDNALQSGNSQESVTEQDSKDSTYSLSSTLTLSKADYEKHKVYACEVTHQGLSSPVTKSFNRGEC
notes: also called 1-G5_parental (hIgG1)
B18: 1-G5_H1_L0 (antibody, human IgG1, kappa)
heavy: not shown
light: DIQMTQSPSSLSASVGDRVTITCQASQSVYNNNYLSWYQQKPGKAPKLLIYDASTLASGVPSRFSGSGSGTDFTLTISSLQPEDFATYYCQGSYYSGGWDTAFGGGTKVEIKTVAAPSVFIFPPSDEQLKSGTASVVCLLNNFYPREAKVQWKVDNALQSGNSQESVTEQDSKDSTYSLSSTLTLSKADYEKHKVYACEVTHQGLSSPVTKSFNRGEC
notes: humanised, human IgG1 kappa
B19: 4-H3_H0_L0 (antibody, human IgG1, kappa, V domains shown)
VH: QVQLVESGGGVVQPGRSLRLSCAASGFTFSSNAMNWVRQAPGKGLEWVAGIYGHDTSYYAAWAKGRFTISRDNSKNTLYLQMNSLRAEDTAVYYCARGFIYFDIWGQGTLVTVSS
VL: DIQMTQSPSSLSASVGDRVTITCLASEDIASGISWYQQKPGKAPKLLIYGASNLESGVPSRFSGSGSGTDFTLTISSLQPEDFATYYCLGGYSFSSNGLTFGGGTKVEIKT
notes: humanised, human IgG1 kappa

The first assay addresses T1, human full-length VWF (human, UniProt P04275 764-2813). As to the kind of experiment: SPR, Biacore T200, antibody captured on Protein A, full-length VWF as analyte, single-cycle kinetics.
Experimental: (§1) Antibodies were captured on Protein A sensor chip. The system was purged using running buffer (10 mM HEPES pH 7.4, 300 mM NaCl, 3 mM EDTA, 0.05% P20) and a series S Protein A chip was docked in the Biacore T200. The surface was conditioned with 10 mM glycine-HCl pH 1.5 regeneration solution (3 injections). Each antibody was diluted to ˜0.8 μg/ml in running buffer to capture ˜350 RU on flow cells 2, 3 and 4 (flow cell 1 used as in-line reference cell). Single-cycle kinetic analysis of human full-length VWF binding to antibodies was performed using the following parameters:
As for B1, the Kd (usually the equilibrium constant for the complex coming apart) was determined as 0.649 pM, the koff (usually the rate constant with which the complex falls apart) turned out to be 2.67e-08 s⁻¹ and the kon (usually a measure of how fast the partners come together) was 41200 M⁻¹ s⁻¹.

B2 gave a Kd of 1.73 pM, a koff of 1.14e-07 s⁻¹ and a kon of 65700 M⁻¹ s⁻¹.

The target in the next assay is T1, human full-length VWF. The assay is described as above. This is another data set of the same source.
Experimental: as §1
B3 came in with a Kd of 50 pM, a koff of 6.59e-06 s⁻¹ and a kon of 132000 M⁻¹ s⁻¹.

On to B4, for which binding was characterised by a dissociation constant (Kd) of 31.2 pM, the koff turned out to be 4.2e-06 s⁻¹ and the kon stood at 135000 M⁻¹ s⁻¹.

As for B5, the affinity, expressed as Kd, was 0.304 pM; the koff amounted to 2.37e-08 s⁻¹; the kon amounted to 78000 M⁻¹ s⁻¹.

As for B6, the affinity, expressed as Kd, was 0.031 pM; the dissociation rate constant (koff) is 2.38e-09 s⁻¹; the kon stood at 77000 M⁻¹ s⁻¹.

For B7, binding was characterised by a dissociation constant (Kd) of 43.4 pM.

A further assay addresses T1, human full-length VWF. The assay is described as above. This is another data set of the same source.
Experimental: as §1
As for B8, binding was put at a Kd of 12.4 pM, the koff worked out at 1.14e-06 s⁻¹ and the kon is 92000 M⁻¹ s⁻¹.

Molecule B9 yielded a Kd of 3.13 pM, a koff of 7.18e-08 s⁻¹ and a kon of 22900 M⁻¹ s⁻¹.

In turn, B10 returned a Kd of 14.4 pM, a koff of 3.78e-07 s⁻¹ and a kon of 26200 M⁻¹ s⁻¹.

B11 had a Kd of 4.09 pM, a koff of 3.59e-07 s⁻¹ and a kon of 87700 M⁻¹ s⁻¹.

In turn, B12 gave a Kd of 12 pM, a koff of 1.28e-06 s⁻¹ and a kon of 107000 M⁻¹ s⁻¹.

B13 registered a Kd of 3.58 pM, a koff of 3.8e-07 s⁻¹ and a kon of 106000 M⁻¹ s⁻¹.

B14: the Kd turned out to be 111 pM, the koff worked out at 2.12e-05 s⁻¹ and the kon amounted to 192000 M⁻¹ s⁻¹.

In the case of B15, binding was put at a Kd of 6.77 pM, the off-rate constant (koff) turned out to be 1.66e-07 s⁻¹ and the kon stood at 24600 M⁻¹ s⁻¹.

Regarding B16, the Kd was 8.52 pM, the koff was 7.2e-07 s⁻¹ and the kon is 84500 M⁻¹ s⁻¹.

Regarding B17, the Kd was found to be 0.475 pM.

Another assay deals with T1, human full-length VWF. As to the kind of experiment: SPR Biacore T200, antibody captured on Protein A chip, full-length VWF as analyte, single-cycle kinetics. For orientation: In SPR one partner is held on a chip, and binding of the other changes the refractive index at the surface.
Experimental: as §1
For the molecule B18, the Kd was under 1000 pM.

The molecule B1 showed a Kd of under 1000 pM.

Take B2: the Kd was under 1000 pM.

The molecule B19 showed a Kd of under 1000 pM.
